Results from patent US20040170622A1, “Methods and compositions for modulating XBP-1 activity” (President and Fellows of Harvard College, priority 2002, published 2004).
Where a SMILES comes first, the peptide text is derived from it. The star is where a group is joined. Cbz = O=C(OCc1ccccc1)*

Assays:
XBP-1 protein = XBP-1 protein species in MOPC315 and MM.1S myeloma cells treated with proteasome inhibitors (Western blot); assay type: cell-based; conditions: mouse myeloma MOPC315 and human myeloma MM.1S
Description: A variety of reversible and irreversible inhibitors that inhibit degradation of proteins by the ubiquitin-proteasome pathway have recently been identified. Proteasome inhibitors MG132 and PS341 block the rapid degradation of ubiquitinated proteins such as unspliced, but not spliced XBP-1. Myeloma cells express primarily spliced XBP-1 protein as expected. […] In this experiment lysates from MOPC315 cells were untreated or treated for 6 hours with 5 ug/ml of tunicamycin or 20 uM of MG-132 and were analyzed for the presence of XBP-1 using XBP-1 antibody. The two forms of XBP-1 were distinguished by their molecular weight.
In the presence of proteasome inhibitors, unspliced XBP-1 protein accumulates in the cell and is present at higher levels than the spliced protein. Lysates from Mm. 1S cells were untreated or treated for 1, 4, or 8 hours with 20 uM of PS-341 and were analyzed by western blotting with anti-XBP-1 antibody. Because unspliced, but not spliced XBP-1 is stabilized, the ratio of unspliced to spliced XBP-1 increases in cells treated with proteasome inhibitors.

BCL-1 cells = test: IgM secretion by retrovirally transduced BCL-1 cells (ELISA); assay type: cell-based
Description: Mouse splenocytes or purified B cells (purified mature B cells were isolated from spleen and lymph nodes by magnetic CD43 depletion or B220 magnetic bead selection, Miltenyi Biotech, Auburn Calif.) were plated at 1×10^6 cells/ml in complete media containing RPMI 1640 supplemented with 10% fetal calf serum (FBS)(Hyclone Laboratories), glutamine (2 mM), penicillin (50 units/ml), streptomycin (50 μg/ml), Hepes (100 mM), nonessential amino acids (1×) sodium pyruvate (1 mM) and β-ME (50 μM) and stimulated with anti-CD40(1 μg/ml)(Pharmigen) or LPS (20 μg/ml)(Sigma). Cytokines (R&D Systems, Minneapolis, Minn.) were used at IL-4 (20 ng/ml), IL-2 (20 ng/ml), Il-5 (20 ng/ml), IL-6 (20 ng/ml ), IL-10 (20 ng/ml ) and IL-13 (20 ng/ml). Stimulated B cells were split to a cell concentration of 1×10^6 cells/ml with fresh media every 24 h. The BCL1 (CWS13.20-3B3 ATCC CRL 1699) cell line was cultured in RPMI media supplemented with 10% FBS, gentamicin (20 μg/ml), and β-ME (50 μM). To induce differentiation cells were plated at 2×10^5 cells/ml and treated with recombinant mouse IL-2 and IL-5 (20 ng/ml) (R&D systems).
(§1) Assays to measure immunoglobulin or cytokine levels in culture supernatants were performed as described (e.g., Hodge et al., 1996 Immunity. 4:397-405 or Science. 1996 274:1903-5).
The XBP-1 cDNAs for the unspliced (XBP-1u/s) and the spliced (XBP-1s) forms were PCR-amplified from the total RNA of untreated and tunicamycin treated NIH3T3 cells, respectively, with a primer set (5′-[…]-3′ (SEQ ID NO: 7) and 5′-[…]-3′) (SEQ ID NO: 8). XBP-1u form was generated by a PCR-based mutagenesis from XBP-unspliced/s cDNA so that the two G residues at position 532 and 535 were changed to A without changing amino acid sequences in the XBP-1u open reading frame. Numbers are based on the sequences from gene bank database (NM_013842 [gi:13775155]). These XBP-1 cDNAs were inserted into the GFP-RV retroviral vector by using blunt end ligation (Sambrook et al., 1989). EFFECTENE transfection (Quiagen) was used to introduce the DNA into the Phoenix cell line as described by manufacturer (e.g., Reimold et al., 2001 Nature. 412:300-7 or Int Immunol. 2001 13:241-8). Viral supernatants were harvested after 48 hours and frozen at −80° C. for later use. B cells were purified from mouse spleens using CD43 depletion or positive selection with B220+ magnetic beads as described by the manufacturer (MidiMacs, Miltenyi Biotech). B cell purity was generally near 95% as confirmed by flow cytometry. The B cells (10^6 cells /ml) were then activated in culture with LPS 10 μg/ml and F (ab′)2 anti-IgM (5 μg/ml Southern Biotechnology Associates Inc.) for 24 hours. […]

XBP-1^−/− B cells = test: Ig production by retrovirally transduced XBP-1-/- primary B cells (ELISA); assay type: cell-based, mouse; conditions: LPS 10 μg/ml 72 h
Description: as §1
The XBP-1 cDNAs for the unspliced (XBP-1u/s) and the spliced (XBP-1s) forms were PCR-amplified from the total RNA of untreated and tunicamycin treated NIH3T3 cells, respectively, with a primer set (5′-[…]-3′ (SEQ ID NO: 7) and 5′-[…]-3′) (SEQ ID NO: 8). XBP-1u form was generated by a PCR-based mutagenesis from XBP-unspliced/s cDNA so that the two G residues at position 532 and 535 were changed to A without changing amino acid sequences in the XBP-1u open reading frame. Numbers are based on the sequences from gene bank database (NM_013842 [gi:13775155]). These XBP-1 cDNAs were inserted into the GFP-RV retroviral vector by using blunt end ligation (Sambrook et al., 1989). EFFECTENE transfection (Quiagen) was used to introduce the DNA into the Phoenix cell line as described by manufacturer (e.g., Reimold et al., 2001 Nature. 412:300-7 or Int Immunol. 2001 13:241-8). Viral supernatants were harvested after 48 hours and frozen at −80° C. for later use. B cells were purified from mouse spleens using CD43 depletion or positive selection with B220+ magnetic beads as described by the manufacturer (MidiMacs, Miltenyi Biotech). B cell purity was generally near 95% as confirmed by flow cytometry. The B cells (10^6 cells /ml) were then activated in culture with LPS 10 μg/ml and F (ab′)2 anti-IgM (5 μg/ml Southern Biotechnology Associates Inc.) for 24 hours. The 1 ml of activated B cells (10^6 cells/ml) were mixed with 4 μg of polybrene and 1 ml of virus-containing supernatant and spun at 1000 g for 45 minutes at 24° C. Cells were incubated for 24-36 h at 37° C. and then GFP+ cells were flow sorted and returned to culture with and without stimulation.
The effects of these three different forms of XBP-1 on Ig secretion were compared in wild type and XBP-1^−/− B cells. In vitro activated splenic B cells were transduced using retroviruses expressing bicistronic mRNA encoding XBP-1u/s, XBP-1s, XBP-1u or control GFP. In FIGS. 5(A) and (B) purified B cells from wt and XBP-1^−/− mice were activated in culture with LPS 10 μg/ml and F (ab′)2 anti-IgM (5 μg/ml) for 24 hours. Retroviral transduction with GFP alone (GFP-Rv), XBP-1u/s (XBP-1u/s GFP Rv), XBP-1s (XBP-1s GFP Rv) or XBP-1u (XBP-1u GFP Rv) of activated B cells was performed. Cells were incubated for 24-36 h at 37° C. and then GFP+ cells were flow sorted and then returned to culture with LPS stimulation (10 μg/ml) for 72 h. IgM panel(A) and IgG2b panel (B) production analyzed by ELISA from culture supernatants of stimulated B cells. Experiments were done at least three times and standard deviation is shown.

For `CC(C)C[C@@H](C=O)NC(=O)[C@H](CC(C)C)NC(=O)[C@H](CC(C)C)NC(=O)OCc1ccccc1` [MG-132] (Cbz-Leu-Leu-Leu-aldehyde), the “amount of unspliced XBP-1 protein” value (XBP-1 protein) was “dramatic increase in the amount of unspliced XBP-1 protein” and the “levels of active spliced XBP-1 protein” value (XBP-1 protein) was “concomitant decrease in levels of the active spliced XBP-1 protein”.

B1: XBP-1s: vector encoding only the spliced form of murine XBP-1, a protein of 371 aa (protein)
chain: MVVVAAAPSAATAAPKVLLLSGQPASGGRALPLMVPGPRAAGSEASGTPQARKRQRLTHLSPEEKALRRKLKNRVAAQTARDRKKARMSELEQQVVDLEEENHKLQLENQLLREKTHGLVVENQELRTRLGMDTLDPDEVPEVEAKGSGVRLVAGSAESAAGAGPVVTSPEHLPMDSDTVASSDSESDILLGILDKLDPVMFFKCPSPESASLEELPEVYPEGPSSLPASLSLSVGTSSAKLEAINELIRFDHVYTKPLVLEIPSETESQTNVVVKIEEAPLSSSEEDHPEFIVSVKKEPLEDDFIPELGISNLLSSSHCLRPPSCLLDAHSDCGYEGSPSPFSDMSSPLGTDHSWEDTFANELFPQLISV
In the case of B1, the “IgM secretion compared to vector alone controls” value (BCL-1 cells; GFP positive BCL-1 cells treated with IL-2 and IL-5 for 3 days) is reported as “approximately fourfold”, the Ig secretion (BCL-1 cells; GFP positive BCL-1 cells untreated with cytokine) is reported as “neither XBP-1u/s nor XBP-1s forms were able to induce Ig secretion” and the “secretion of IgM compared to control cells” value (XBP-1^−/− B cells) is reported as “approximately ten-fold”.
